These results are taken from IntAct's records for PubMed 17113272.

To fix the notation:
B1: Armadillo segment polarity protein (Drosophila melanogaster (Fruit fly)), P18824 (parent)
chain: MSYMPAQNRTMSHNNQYNPPDLPPMVSAKEQTLMWQQNSYLGDSGIHSGAVTQVPSLSGKEDEEMEGDPLMFDLDTGFPQNFTQDQVDDMNQQLSQTRSQRVRAAMFPETLEEGIEIPSTQFDPQQPTAVQRLSEPSQMLKHAVVNLINYQDDAELATRAIPELIKLLNDEDQVVVSQAAMMVHQLSKKEASRHAIMNSPQMVAALVRAISNSNDLESTKAAVGTLHNLSHHRQGLLAIFKSGGIPALVKLLSSPVESVLFYAITTLHNLLLHQDGSKMAVRLAGGLQKMVTLLQRNNVKFLAIVTDCLQILAYGNQESKLIILASGGPNELVRIMRSYDYEKLLWTTSRVLKVLSVCSSNKPAIVDAGGMQALAMHLGNMSPRLVQNCLWTLRNLSDAATKVEGLEALLQSLVQVLGSTDVNVVTCAAGILSNLTCNNQRNKATVCQVGGVDALVRTIINAGDREEITEPAVCALRHLTSRHVDSELAQNAVRLNYGLSVIVKLLHPPSRWPLIKAVIGLIRNLALCPANHAPLREHGAIHHLVRLLMRAFQDTERQRSSIATTGSQQPSAYADGVRMEEIVEGTVGALHILARESHNRALIRQQSVIPIFVRLLFNEIENIQRVAAGVLCELAADKEGAEIIEQEGATGPLTDLLHSRNEGVATYAAAVLFRMSEDKPQDYKKRLSIELTNSLLREDNNIWANADLGMGPDLQDMLGPEEAYEGLYGQGPPSVHSSHGGRAFHQQGYDTLPIDSMQGLEISSPVGGGGAGGAPGNGGAVGGASGGGGNIGAIPPSGAPTSPYSMDMDVGEIDAGALNFDLDAMPTPPNDNNNLAAWYDTDC
partner: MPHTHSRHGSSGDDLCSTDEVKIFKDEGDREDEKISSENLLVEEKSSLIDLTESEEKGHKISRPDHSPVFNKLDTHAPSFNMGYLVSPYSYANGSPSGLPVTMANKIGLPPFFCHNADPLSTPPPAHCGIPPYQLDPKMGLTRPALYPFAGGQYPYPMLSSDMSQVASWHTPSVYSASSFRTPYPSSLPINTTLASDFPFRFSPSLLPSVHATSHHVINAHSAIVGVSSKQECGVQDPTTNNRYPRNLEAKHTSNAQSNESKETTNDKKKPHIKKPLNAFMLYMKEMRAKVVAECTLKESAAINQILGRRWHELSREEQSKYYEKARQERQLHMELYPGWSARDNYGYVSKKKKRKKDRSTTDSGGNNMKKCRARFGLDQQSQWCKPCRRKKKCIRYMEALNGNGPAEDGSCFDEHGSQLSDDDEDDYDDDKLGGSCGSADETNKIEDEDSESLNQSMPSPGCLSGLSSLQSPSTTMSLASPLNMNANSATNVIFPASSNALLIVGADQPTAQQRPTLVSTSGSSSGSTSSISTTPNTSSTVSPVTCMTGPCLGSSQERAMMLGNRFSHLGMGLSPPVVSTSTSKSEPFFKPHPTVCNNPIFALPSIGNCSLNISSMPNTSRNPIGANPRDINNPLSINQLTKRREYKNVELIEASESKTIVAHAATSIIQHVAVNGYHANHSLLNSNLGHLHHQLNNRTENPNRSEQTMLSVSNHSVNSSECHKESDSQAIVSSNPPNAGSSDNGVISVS
B2: Catenin beta-1 (Mus musculus), Q02248 (parent)
chain: MATQADLMELDMAMEPDRKAAVSHWQQQSYLDSGIHSGATTTAPSLSGKGNPEEEDVDTSQVLYEWEQGFSQSFTQEQVADIDGQYAMTRAQRVRAAMFPETLDEGMQIPSTQFDAAHPTNVQRLAEPSQMLKHAVVNLINYQDDAELATRAIPELTKLLNDEDQVVVNKAAVMVHQLSKKEASRHAIMRSPQMVSAIVRTMQNTNDVETARCTAGTLHNLSHHREGLLAIFKSGGIPALVKMLGSPVDSVLFYAITTLHNLLLHQEGAKMAVRLAGGLQKMVALLNKTNVKFLAITTDCLQILAYGNQESKLIILASGGPQALVNIMRTYTYEKLLWTTSRVLKVLSVCSSNKPAIVEAGGMQALGLHLTDPSQRLVQNCLWTLRNLSDAATKQEGMEGLLGTLVQLLGSDDINVVTCAAGILSNLTCNNYKNKMMVCQVGGIEALVRTVLRAGDREDITEPAICALRHLTSRHQEAEMAQNAVRLHYGLPVVVKLLHPPSHWPLIKATVGLIRNLALCPANHAPLREQGAIPRLVQLLVRAHQDTQRRTSMGGTQQQFVEGVRMEEIVEGCTGALHILARDVHNRIVIRGLNTIPLFVQLLYSPIENIQRVAAGVLCELAQDKEAAEAIEAEGATAPLTELLHSRNEGVATYAAAVLFRMSEDKPQDYKKRLSVELTSSLFRTEPMAWNETADLGLDIGAQGEALGYRQDDPSYRSFHSGGYGQDALGMDPMMEHEMGGHHPGADYPVDGLPDLGHAQDLMDGLPPGDSNQLAWFDTDL
partner: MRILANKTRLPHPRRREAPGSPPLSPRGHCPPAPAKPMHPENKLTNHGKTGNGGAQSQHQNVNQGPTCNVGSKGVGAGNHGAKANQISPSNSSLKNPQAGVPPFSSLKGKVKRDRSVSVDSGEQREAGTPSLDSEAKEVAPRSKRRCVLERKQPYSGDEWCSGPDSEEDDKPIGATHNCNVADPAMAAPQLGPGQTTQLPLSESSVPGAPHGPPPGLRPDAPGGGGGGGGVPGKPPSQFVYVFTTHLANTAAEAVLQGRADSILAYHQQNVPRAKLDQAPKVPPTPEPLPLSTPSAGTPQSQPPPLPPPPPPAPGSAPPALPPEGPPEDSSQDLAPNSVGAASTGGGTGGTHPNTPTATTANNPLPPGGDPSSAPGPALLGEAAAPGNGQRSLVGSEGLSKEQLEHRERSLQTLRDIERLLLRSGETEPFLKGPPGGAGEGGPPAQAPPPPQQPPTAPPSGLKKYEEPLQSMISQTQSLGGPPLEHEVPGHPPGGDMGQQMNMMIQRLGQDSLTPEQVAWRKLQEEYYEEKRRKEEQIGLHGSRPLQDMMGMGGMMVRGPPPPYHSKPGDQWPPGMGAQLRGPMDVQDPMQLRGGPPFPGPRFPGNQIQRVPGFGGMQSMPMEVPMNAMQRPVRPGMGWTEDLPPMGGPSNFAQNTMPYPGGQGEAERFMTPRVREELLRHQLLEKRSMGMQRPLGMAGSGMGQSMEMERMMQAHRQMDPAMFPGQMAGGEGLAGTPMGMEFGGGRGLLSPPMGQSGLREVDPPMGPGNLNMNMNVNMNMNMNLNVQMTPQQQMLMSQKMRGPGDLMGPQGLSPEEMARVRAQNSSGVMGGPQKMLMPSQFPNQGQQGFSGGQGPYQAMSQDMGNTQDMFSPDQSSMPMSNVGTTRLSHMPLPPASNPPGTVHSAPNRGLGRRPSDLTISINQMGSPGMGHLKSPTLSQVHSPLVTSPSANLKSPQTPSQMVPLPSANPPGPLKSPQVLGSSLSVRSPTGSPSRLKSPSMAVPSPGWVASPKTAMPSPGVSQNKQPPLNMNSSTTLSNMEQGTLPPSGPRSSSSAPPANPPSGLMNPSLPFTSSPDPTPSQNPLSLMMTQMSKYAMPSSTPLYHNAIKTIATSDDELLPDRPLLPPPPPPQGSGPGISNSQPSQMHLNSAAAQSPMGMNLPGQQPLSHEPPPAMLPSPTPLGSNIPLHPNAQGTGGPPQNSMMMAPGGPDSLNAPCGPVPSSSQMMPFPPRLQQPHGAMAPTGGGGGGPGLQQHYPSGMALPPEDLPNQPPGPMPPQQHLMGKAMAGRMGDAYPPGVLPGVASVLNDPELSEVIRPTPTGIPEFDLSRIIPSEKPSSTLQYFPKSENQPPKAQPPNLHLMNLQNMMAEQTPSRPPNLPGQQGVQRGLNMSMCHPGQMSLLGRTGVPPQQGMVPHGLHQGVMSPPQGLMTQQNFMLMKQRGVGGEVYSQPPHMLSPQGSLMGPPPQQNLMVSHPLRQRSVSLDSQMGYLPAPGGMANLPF
B3: Armadillo segment polarity protein (Drosophila melanogaster (Fruit fly)), P18824 (parent)
chain: B1 chain
partner: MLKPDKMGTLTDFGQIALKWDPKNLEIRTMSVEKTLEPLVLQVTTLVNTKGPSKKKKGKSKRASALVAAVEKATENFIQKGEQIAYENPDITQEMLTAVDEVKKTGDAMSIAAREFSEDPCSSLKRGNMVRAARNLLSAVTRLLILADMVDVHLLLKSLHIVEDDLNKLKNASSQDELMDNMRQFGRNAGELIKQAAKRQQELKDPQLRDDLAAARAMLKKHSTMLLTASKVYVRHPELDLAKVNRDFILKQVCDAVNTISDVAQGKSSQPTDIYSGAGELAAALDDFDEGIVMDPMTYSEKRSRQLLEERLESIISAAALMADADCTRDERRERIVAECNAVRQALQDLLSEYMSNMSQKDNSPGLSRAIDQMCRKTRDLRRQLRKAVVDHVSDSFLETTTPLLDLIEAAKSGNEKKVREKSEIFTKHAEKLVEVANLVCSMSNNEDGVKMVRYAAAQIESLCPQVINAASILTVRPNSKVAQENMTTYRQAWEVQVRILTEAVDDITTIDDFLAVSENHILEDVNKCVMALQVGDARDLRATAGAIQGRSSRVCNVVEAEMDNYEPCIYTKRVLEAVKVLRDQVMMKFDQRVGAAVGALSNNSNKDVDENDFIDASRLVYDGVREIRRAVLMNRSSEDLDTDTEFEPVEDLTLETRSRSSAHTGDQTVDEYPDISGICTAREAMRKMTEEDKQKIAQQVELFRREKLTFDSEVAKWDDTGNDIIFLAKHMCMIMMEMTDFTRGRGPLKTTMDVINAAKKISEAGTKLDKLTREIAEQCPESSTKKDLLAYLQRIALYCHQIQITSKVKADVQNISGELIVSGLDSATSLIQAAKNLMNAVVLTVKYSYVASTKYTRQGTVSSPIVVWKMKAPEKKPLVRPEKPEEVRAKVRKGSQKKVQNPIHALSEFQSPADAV

The first assay covers variants of B1. The conditions noted are these: with pang1_drome pan.
For the variant D172A, the “effect of a mutation on the interaction” value was “disrupting interaction”.

The variants in a further assay derive from B2. The conditions noted are these: with bcl9l_human BCL9L.
Consider D164A, for which the “effect of a mutation on the interaction” value is “disrupting interaction”.

In another assay the parent is B3. The following applies: with ctna_drome alpha-Cat.
For Y150A, the “effect of a mutation on the interaction” value was “disrupting interaction”.
